Experimental findings from the supplement of paper PMC10126150 are described below.

± gives the standard deviation of the averaged measurements.
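Further: ATP exposure 15 min at 22 °C before imaging.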

The test system of the data set is ATP. Briefly: switch fluorescence ratio, 500 uM ATP over buffer (Cy3 cluster intensity, sum of 5 cycles each) (fold (ratio)); higher = stronger signal-on switching upon ATP binding; sequences stand for … in TCGTCGGCAGCGTCAGATGTGTATAAGAGACAGTTTTTTTTTTTTTTTTTTTTTTTTT…TC. The following applies: aptamer strand: ATP DNA aptamer (quencher-CACCTGGGGGAGTATTGCGGAGGAAGG + anchor), 100 nM annealed; ATP concentration: 500 uM. The method, boiled down:
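Clusters carrying Cy3-labelled switching strands on a modified Illumina MiSeq flow-cell were annealed to 100 nM quencher-labelled ATP aptamer and imaged in selection buffer. They were imaged again after 15 min with 500 uM ATP at 22 °C, over five buffer/ATP cycles with NaOH stripping and re-annealing in between. For each cluster, the fluorescence ratio is the summed Cy3 intensity of the target cycles divided by that of the buffer cycles, averaged per switch-domain sequence. Clusters outside 100-1000 RFU were left out.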
As for AAAGGGAAGT, the switch fluorescence ratio is 0.983 ± 0.048.
For TGACGTTAAG the value was 1.03 ± 0.086.
For TCTTTCAAGT the value was 0.994 ± 0.011; for CGGGTTGCAG, 0.97 ± 0.019; for GTTAACTGAG, 1.03 ± 0.041.
As for CAAAGTTAGG, the switch fluorescence ratio came to 0.97 ± 0.013.
For TATGATATTA the value was 0.9907 ± 0.0064; for GTAATTTTTC, 1.01 ± 0.053; for AAATGGTACT, 1.01 ± 0.035.
Regarding TGGGCGTAG, the switch fluorescence ratio was 0.993 ± 0.011.
As for GTTGAGGGA, the figure is 1.04 ± 0.079.
As for CCAAAGGGAC, the figure is 1.089 ± 0.0061.
For the sequence GGTTTGGTAG, the switch fluorescence ratio turned out to be 0.9873 ± 0.0029.
As for CATTTGGTCC, the figure is 1.008 ± 0.0012; as for ATGGACTCAA, 1.051 ± 0.0073; as for ATATTAGTCT, 1.001 ± 0.0035.
As for TGGTTGCGGC, the figure is 0.986 ± 0.03; as for CAGGTATAGG, 0.9864 ± 0.0054.
As for ATGGCGGATG, the figure is 1.01 ± 0.063.
Turning to GAGGGGAGGT, the switch fluorescence ratio stood at 0.974 ± 0.025.
As for ATTGGGTTTC, the figure is 0.982 ± 0.021; as for TTCTTAATGC, 0.985 ± 0.024.
For GACTAGGCCT the value was 0.988 ± 0.02; for GGTGTAGGCA, 0.987 ± 0.03.
For TTAGGACTGG the value was 0.992 ± 0.0054; for CAGGAGGAAT, 1.242 ± 0.0098.
Consider GAGGTTTTAT, for which the switch fluorescence ratio amounted to 0.987 ± 0.054.
For ATTGACTCAG the value was 1.01 ± 0.012.
As for AAGGGGGGAC, the figure is 1.04 ± 0.07.
As for AAGGACGCTG, the figure is 0.991 ± 0.069.
Take GACCATGAAA: the switch fluorescence ratio turned out to be 0.96295 ± 0.0008.
For CATAGTATGG the value was 0.9706 ± 0.0029; for GCATTGGTTC, 1.02 ± 0.042.
As for TTTTACTGTT, the figure is 1.12 ± 0.096; as for AATGGGGGAT, 0.988 ± 0.029; as for GCGGGGCCAT, 1.02 ± 0.028.
Turning to GGGTGAAGAA, the switch fluorescence ratio came to 0.967 ± 0.019.
For GGAAAGATTG the value was 0.991 ± 0.041.
As for GGCAGTCCTT, the figure is 1.005 ± 0.0044.
As for TTTTTCGTAA, the switch fluorescence ratio was found to be 1.04 ± 0.061.
For GGGGCTTTTG the value was 0.98 ± 0.04.
Regarding CGGAAGGGCC, the switch fluorescence ratio was 0.995 ± 0.03.
Regarding TGCGGGGGGT, the switch fluorescence ratio stood at 1.025 ± 0.0086.
Consider ACAGTTGCTC, for which the switch fluorescence ratio amounted to 1.02 ± 0.02.
For TGGGGGGCTA the value was 1.02 ± 0.056; for TAACATCGGT, 0.996 ± 0.021; for TGTTTTGGGC, 0.992 ± 0.033.
As for TCGCTGAAGC, the figure is 1.02 ± 0.013; as for CAGGCTAAAG, 0.989 ± 0.032.
For GCCTAAATGC the value was 1.44 ± 0.28; for TCAATGTTTG, 1.008 ± 0.0069; for AACATTTTTG, 0.998 ± 0.026.
As for TTTGAGCTGT, the switch fluorescence ratio worked out at 1.02 ± 0.042.
Regarding GCCCCATTTT, the switch fluorescence ratio was 1.01 ± 0.024.
As for AGAACTGAGA, the figure is 0.998 ± 0.077; as for GATGTAGCTT, 1.029 ± 0.0033.
For TCAGGGGGCC, the switch fluorescence ratio is 1.02 ± 0.077.
In the case of TAGTCTTTAG, the switch fluorescence ratio came to 1.01 ± 0.0072.
For GTTTCAGGTA the value was 1.02 ± 0.029; for GGCTGTTAAA, 0.978 ± 0.019; for TTTAAATTGA, 0.986 ± 0.02.
As for TACGGGGTCT, the figure is 1.04 ± 0.037.
As for AAAAAACGTG, the switch fluorescence ratio was 1.06 ± 0.091.
In the case of GAGGGGAAGT, the switch fluorescence ratio was 0.9982 ± 0.004.
For ACTTACAGAA the value was 1.23 ± 0.011; for TATTTTTCAT, 1.01 ± 0.052.
As for TTACCCTTAG, the figure is 1.06 ± 0.028.
As for CTTACGGAGG, the figure is 1.01 ± 0.015; as for AGAGTGACGT, 0.9848 ± 0.0018; as for TTGTTGTTCC, 1.08 ± 0.063.
For AGTCCGGAGT, the switch fluorescence ratio is 1.05 ± 0.023.
TATGCGCCGT: the switch fluorescence ratio turned out to be 0.984 ± 0.026.
For ATTAATTATC the value was 0.993 ± 0.031; for GGGGTGTGGT, 0.998 ± 0.038.
For TAGGGGTTTT, the switch fluorescence ratio was determined as 1.01 ± 0.024.
As for AAATGTTTGC, the figure is 1.01 ± 0.018.
As for ATGATATTTC, the figure is 0.961 ± 0.021; as for TGTTTGTGTT, 0.977 ± 0.013.
For AGAACGGCGG the value was 0.972 ± 0.085; for CGCAGGATTT, 1.09 ± 0.19.
For CGAGCATTGT, the switch fluorescence ratio stood at 1.16 ± 0.031.
As to GAATATTTAG, the switch fluorescence ratio was 0.958 ± 0.015.
For CATATGTAGA the value was 0.997 ± 0.023.
Regarding TGAATAGGGA, the switch fluorescence ratio amounted to 0.982 ± 0.05.
As for AAAGTTGCGG, the figure is 1.016 ± 0.0045.
Consider TCGCTTAATT, for which the switch fluorescence ratio was 1.02 ± 0.032.
For AGGGATTATT the value was 1.02 ± 0.016; for TGTGCGGGGT, 0.974 ± 0.012; for TATGTTGGGG, 0.957 ± 0.018.
For ATGGGAGCCA the value was 1 ± 0.028; for GGATTGTAAT, 0.9956 ± 0.0034.
For TCGGGGGGTC the value was 0.981 ± 0.043; for TTTCGGGGCA, 1.02 ± 0.034.
Turning to CTGAGGAGAC, the switch fluorescence ratio was found to be 1.05 ± 0.042.
For GGTTGAAGTT the value was 0.986 ± 0.0077; for ATGATGGGCT, 0.9654 ± 0.0059.
As for TCTTTTGGTG, the figure is 1.03 ± 0.019; as for GTTGAAGTTG, 0.968 ± 0.02.
As to ATCAGGCGGA, the switch fluorescence ratio is 1 ± 0.045.
As for TACTAAGTAT, the figure is 0.996 ± 0.069; as for CCGATAGATG, 1.065 ± 0.0047; as for CGAGGGCTAG, 1.04 ± 0.074.
Regarding AGTAAGGCTC, the switch fluorescence ratio amounted to 1.14 ± 0.061.
As for TAGGGATTCT, the figure is 0.995 ± 0.026; as for ATTTCTAACT, 1.015 ± 0.0022.
For TTTTGAAAGT the value was 1.07 ± 0.14.
As for TTGATTGTTG, the figure is 0.982 ± 0.013; as for TTTATATGAA, 0.97 ± 0.042; as for TGTGGCTTAA, 0.9668 ± 0.0021.
As for AAGCGGTCGC, the switch fluorescence ratio was 0.99 ± 0.017.
As to AGGCTTATCG, the switch fluorescence ratio was 1.02 ± 0.024.
For TAGAAGGCTT the value was 0.9989 ± 0.0076.
For GGGGAGAAAC the value was 1.08 ± 0.042.
Take GACTTGACTG: the switch fluorescence ratio amounted to 1.11 ± 0.03.
For TCGGATTGGA the value was 0.981 ± 0.028.
For TCAGTACTTT, the switch fluorescence ratio was determined as 0.998 ± 0.043.
For TGGGGCATCG the value was 1 ± 0.029.
As for GTTGGTAGGG, the figure is 0.9979 ± 0.0099; as for GGTTTCAGAT, 0.975 ± 0.016.
On to GTAGTAGGGT, for which the switch fluorescence ratio was 1.01 ± 0.035.
